{"source": "patent CN115975019A", "about": "(INST PATHOGEN BIOLOGY CAMS, dated 2023)", "biological_target": "T1, SARS-CoV-2 刺突ECD蛋白 (Sinobiological) (SARS-CoV-2, UniProt P0DTC2 14-1213)", "T1 construct": "extracellular domain; also called Spike ECD蛋白", "test": "ELISA, spike ECD coated 50 ng/well, antibody titrated"}
{"binder": "A46抗体 (antibody, V domains shown, also called 抗体A46) VH: EVQLLESGGGLIQPGGSLRLSCAVSEFIVSRNYMSWVRQAPGKGLEWVSVLYPGGSTFYADSVKGRFTISRDESTNTLFLQMNTLRVEDTAVYYCARDFGDFYFDFWGQGTLVTVSS VL: EIVLTQSPGTLSLSPGQRAALSCRASQSVSTYLAWYQQKPGQAPRLLIHDASSRASGVPDRFSGTGSGTDFTLTITRLEPEDFAVYYCQQYGTSPRTFGQGTKLEIK", "values": [{"measurement": "EC50", "result": 0.0261, "unit": "µg/mL"}]}
{"binder": "A70抗体 (antibody, V domains shown, also called 抗体A70) VH: QITLKESGPTLVKPTQTLTLTCTFSGFSLDTPGVAIGWIRQPPGRALEWLGLIYWDGDERYNPSLTSRVTLTKDTSKNQVVLTMTNVDSVDTGTYFCGHKTIPTIFGVWGQGAPVTVSS VL: QSALTQPASVSGSPGQSITISCAATSGDFGVFNYVSWYQQHPGKAPKLIIFEVSSRPSGVSNRFSGSKSGNTASLTVSGLQAEDEAVYHCSSYSTSSVVFGGGTKLTVL", "values": [{"measurement": "EC50", "result": 0.0351, "unit": "µg/mL"}]}
